From patent US20250074974A1 (KANAPH THERAPEUTICS, published 2025)

B1: PRO241 (bispecific antibody, IgG1)
chain: SDTGRPFVEMYSEIPEIIHMTEGRELVIPCRVTSPNITVTLKKFPLDTLIPDGKRIIWDSRKGFIISNATYKEIGLLTCEATVNGHLYKTNYLTHRQTNTIIDVVLSPSHGIELSVGEKLVLNCTARTELNVGIDFNWEYPSSKHQHKKLVNRDLKTQSGSEMKKFLSTLTIDGVTRSDQGLYTCAASSGLMTKKNSTFVRVHEKGGGGSDKTHTCPPCPAPEAAGGPSVFLFPPKPKDTLMISRTPEVTCVVVAVSHEDPEVKFNWYVDGVEVHNAKTKPREEQYGSTYRVVSVLTVLHQDWLNGKEYKCKVSNKALPAPIEKTISKAKGQPREPQVYTLPPSREEMTKNQVSLTCLVKGFYPSDIAVEWESNGQPENNYKTTPPVLDSDGSFFLYSKLTVDKSRWQQGNVFSCSVMHEALHNHYTQKSLSLSPGGGGGSGGGGSGGGGSEVQLVQSGAEVKKPGASVKVSCKASGYTFTGYYINWVRQAPGQGLEWMGIISPNQGTTGYAQKFQGRVTMTRDTSISTAYMELSSLRSEDTAVYYCARGNYDHLDYWGQGTLVTVSSGGGGSGGGGSGGGGSGGGGSDIQMTQSPSSLSASVGDRVTITCRASQGISNYLNWYQQKPGKAPKLLIYDASTLQSGVPSRFSGSGSGTDFTLTISSLQPEDFATYYCQQDWHTLPVTFGQGTKVEIK
notes: Purified as a fusion protein dimer
B2: PRO236 (bispecific antibody, human IgG1, kappa, L234A L235A, N297G)
heavy: EVQLVESGGGLVQPGGSLRLSCAASGFTFSSYWMTWVRQAPGKGLEWVSSIKIKPDGYAASVKGRFTISRDNSKNTLYLQMNSLRAEDTAVYYCARLFYQYFARMDYWGQGTLVTVSSASTKGPSVFPLAPSSKSTSGGTAALGCLVKDYFPEPVTVSWNSGALTSGVHTFPAVLQSSGLYSLSSVVTVPSSSLGTQTYICNVNHKPSNTKVDKRVEPKSCDKTHTCPPCPAPEAAGGPSVFLFPPKPKDTLMISRTPEVTCVVVAVSHEDPEVKFNWYVDGVEVHNAKTKPREEQYGSTYRVVSVLTVLHQDWLNGKEYKCKVSNKALPAPIEKTISKAKGQPREPQVYTLPPSREEMTKNQVSLTCLVKGFYPSDIAVEWESNGQPENNYKTTPPVLDSDGSFFLYSKLTVDKSRWQQGNVFSCSVMHEALHNHYTQKSLSLSPGGGGGSGGGGSSDTGRPFVEMYSEIPEIIHMTEGRELVIPCRVTSPNITVTLKKFPLDTLIPDGKRIIWDSRKGFIISNATYKEIGLLTCEATVNGHLYKTNYLTHRQTNTIIDVVLSPSHGIELSVGEKLVLNCTARTELNVGIDFNWEYPSSKHQHKKLVNRDLKTQSGSEMKKFLSTLTIDGVTRSDQGLYTCAASSGLMTKKNSTFVRVHEK
light: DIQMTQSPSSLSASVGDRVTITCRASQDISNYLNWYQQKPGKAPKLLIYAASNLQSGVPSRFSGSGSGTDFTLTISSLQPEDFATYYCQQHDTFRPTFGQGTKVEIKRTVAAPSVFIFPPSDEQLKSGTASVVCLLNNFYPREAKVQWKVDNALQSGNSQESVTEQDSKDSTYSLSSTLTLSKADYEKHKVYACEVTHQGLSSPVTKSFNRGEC
notes: as for B1
B3: PRO242 (bispecific antibody, IgG1)
chain: SDTGRPFVEMYSEIPEIIHMTEGRELVIPCRVTSPNITVTLKKFPLDTLIPDGKRIIWDSRKGFIISNATYKEIGLLTCEATVNGHLYKTNYLTHRQTNTIIDVVLSPSHGIELSVGEKLVLNCTARTELNVGIDFNWEYPSSKHQHKKLVNRDLKTQSGSEMKKFLSTLTIDGVTRSDQGLYTCAASSGLMTKKNSTFVRVHEKGGGGSDKTHTCPPCPAPEAAGGPSVFLFPPKPKDTLMISRTPEVTCVVVAVSHEDPEVKFNWYVDGVEVHNAKTKPREEQYGSTYRVVSVLTVLHQDWLNGKEYKCKVSNKALPAPIEKTISKAKGQPREPQVYTLPPSREEMTKNQVSLTCLVKGFYPSDIAVEWESNGQPENNYKTTPPVLDSDGSFFLYSKLTVDKSRWQQGNVFSCSVMHEALHNHYTQKSLSLSPGGGGGSGGGGSGGGGSEVQLVESGGGLVQPGGSLRLSCAASGFSFTSSSVSWVRQAPGKGLEWVGLIYPYNGFNYYADSVKGRFTISADTSKNTAYLQMNSLRAEDTAVYYCARNALYGSGGYYAMDYWGQGTLVTVSSGGGGSGGGGSGGGGSGGGGSDIQMTQSPSSLSASVGDRVTITCRASQDVSTAVAWYQQKPGKAPKLLIYSASFLYSGVPSRFSGSGSGTDFTLTISSLQPEDFATYYCQQSYATLPTFEQGTKVEIK
notes: as for B1
B4: PRO238 (bispecific antibody)
heavy: EVQLVESGGGLVQPGGSLRLSCAASGFSFTSSSVSWVRQAPGKGLEWVGLIYPYNGFNYYADSVKGRFTISADTSKNTAYLQMNSLRAEDTAVYYCARNALYGSGGYYAMDYWGQGTLVTVSSASTKGPSVFPLAPSSKSTSGGTAALGCLVKDYFPEPVTVSWNSGALTSGVHTFPAVIQSSGLYSLSSVVTVPSSSLGTQTYICNVNHKPSNTKVDKRVEPKSCDKTHTCPPCPAPEAAGGPSVFLFPPKPKDTLMISRTPEVTCVVVAVSHEDPEVKFNWYVDGVEVHNAKTKPREEQYGSTYRVVSVLTVLHQDWLNGKEYKCKVSNKALPAPIEKTISKAKGQPREPQVYTLPPSREEMTKNQVSLTCLVKGFYPSDIAVEWESNGQPENNYKTTPPVLDSDGSFFLYSKLTVDKSRWQQGNVFSCSVMHEALHNHYTQKSLSLSPGGGGGSGGGGSSDTGRPFVEMYSEIPEIIHMTEGRELVIPCRVTSPNITVTLKKFPLDTLIPDGKRIIWDSRKGFIISNATYKEIGLLTCEATVNGHLYKTNYLTHRQTNTIIDVVLSPSHGIELSVGEKLVLNCTARTELNVGIDFNWEYPSSKHQHKKLVNRDLKTQSGSEMKKFLSTLTIDGVTRSDQGLYTCAASSGLMTKKNSTFVRVHEK
light: DIQMTQSPSSLSASVGDRVTITCRASQDVSTAVAWYQQKPGKAPKLLIYSASFLYSGVPSRFSGSGSGTDFTLTISSLQPEDFATYYCQQSYATLPTFEQGTKVEIKRTVAAPSVFIFPPSDEQLKSGTASVVCLLNNFYPREAKVQWKVDNALQSGNSQESVTEQDSKDSTYSLSSTLTLSKADYEKHKVYACEVTHQGLSSPVTKSFNRGEC
notes: as for B1
B5: PRO237 (bispecific antibody, human IgG1, kappa, L234A L235A, N297G)
heavy: EVQLVQSGAEVKKPGASVKVSCKASGYTFTGYYINWVRQAPGQGLEWMGIISPNQGTTGYAQKFQGRVTMTRDTSISTAYMELSSLRSEDTAVYYCARGNYDHLDYWGQGTLVTVSSASTKGPSVFPLAPSSKSTSGGTAALGCLVKDYFPEPVTVSWNSGALTSGVHTFPAVIQSSGLYSLSSVVTVPSSSLGTQTYICNVNHKPSNTKVDKRVEPKSCDKTHTCPPCPAPEAAGGPSVFLFPPKPKDTLMISRTPEVTCVVVAVSHEDPEVKFNWYVDGVEVHNAKTKPREEQYGSTYRVVSVLTVLHQDWLNGKEYKCKVSNKALPAPIEKTISKAKGQPREPQVYTLPPSREEMTKNQVSLTCLVKGFYPSDIAVEWESNGQPENNYKTTPPVLDSDGSFFLYSKLTVDKSRWQQGNVFSCSVMHEALHNHYTQKSLSLSPGGGGGSGGGGSSDTGRPFVEMYSEIPEIIHMTEGRELVIPCRVTSPNITVTLKKFPLDTLIPDGKRIIWDSRKGFIISNATYKEIGLLTCEATVNGHLYKTNYLTHRQTNTIIDVVLSPSHGIELSVGEKLVLNCTARTELNVGIDFNWEYPSSKHQHKKLVNRDLKTQSGSEMKKFLSTLTIDGVTRSDQGLYTCAASSGLMTKKNSTFVRVHEK
light: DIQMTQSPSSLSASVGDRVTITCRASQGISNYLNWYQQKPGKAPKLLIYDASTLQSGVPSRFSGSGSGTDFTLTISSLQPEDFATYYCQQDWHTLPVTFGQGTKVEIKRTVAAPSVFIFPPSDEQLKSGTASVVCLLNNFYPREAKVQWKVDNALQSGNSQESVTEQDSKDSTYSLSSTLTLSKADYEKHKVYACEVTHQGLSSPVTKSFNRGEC
notes: as for B1

What follows are binders tested against T1, human VEGF165 protein (human, UniProt P15692-4 27-191) (assay: ELISA, human VEGF165 immobilised on plate).
T1 construct: Immobilised on the ELISA plate
Text: Next, the anti-human immunoglobulin G antibody and the anti-horseradish peroxidase (HRP) antibody were sequentially allowed to bind.

T1 sequence (P15692 other isoform, or with tags, fused parts or gaps limits assumed): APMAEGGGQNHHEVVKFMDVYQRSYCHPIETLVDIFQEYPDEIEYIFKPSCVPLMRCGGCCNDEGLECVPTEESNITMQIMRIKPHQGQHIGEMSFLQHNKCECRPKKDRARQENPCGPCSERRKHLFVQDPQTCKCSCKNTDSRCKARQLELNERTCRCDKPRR

Binding result, binds:
B1, B2, B3, B4, B5
